These results are taken from article PMC4105859, “Characterization of the SAM domain of the PKD-related protein ANKS6 and its interaction with ANKS3” (BMC Structural Biology, 2014).

The labels stand for the following.
B2: His6-tagged ANKS3-SAM (domain or fragment, human, UniProt Q6ZW76 421-490, looked up)
chain: RAPYSGPQDLAALLEQIGCLKYLQVFEEQDVDLRIFLTLTESDLKEIGITLFGPKRKMTSAIARWHSSAR
notes: ANKS3, human, SAM domain, residues 421-490 of UniProt Q6ZW76; pET28 vector; also called ANKS3-SAM (negGFP removed); ANKS3-SAM precipitate; source: Rosetta(DE3) cells, purified (Ni-NTA); precipitated after purification

Data set [1] deals with the molecule itself. Kind of data set: negative stain transmission electron microscopy; purified protein or its precipitate on carbon/formvar grids, 1% uranyl acetate, 120 kV.
The target of data set [2] is B2. Kind of data set: resolubilisation of a precipitate; His6-ANKS3-SAM precipitate (3.2 mg/mL dialysed into 20 mM Tris pH 7, 0.25 M NaCl, 1 mM DTT); His6-ANKS6-SAM at 3.3 mg/mL or buffer alone added at 2:1, 1:1, 1:2; 3 h on ice. The following applies: both partners purified.
The target in data set [3] is T1, ANKS3-SAM F53E.
T1 chain: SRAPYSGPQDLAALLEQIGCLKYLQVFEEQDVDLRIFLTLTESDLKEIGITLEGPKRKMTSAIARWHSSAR
Kind of data set: SPR. The following applies: chain shown with the change, read off a plot.

The target of data set [4] is T2, ANKS6-SAM wt (human, UniProt Q68DC2 771-840).
T2 chain: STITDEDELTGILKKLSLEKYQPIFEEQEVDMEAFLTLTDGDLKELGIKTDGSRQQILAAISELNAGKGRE
Kind of data set: SPR; value printed in panel; legend gives 249 nM. (Surface plasmon resonance follows binding to a sensor surface in real time, without labels.)

Data set [5] concerns the target T2, ANKS6-SAM wt. Description: SPR; ANKS6-SAM wt immobilised on CM5 (EDC/NHS), ANKS3-SAM I36E flowed over; Biacore T100, 21°C, 20 mM HEPES pH 7.5, 1 mM DTT, 0.04% IGEPAL CA-630, 0.15 M NaCl; equilibrium, 1:1 steady-state model, triplicate.
Data set [6] deals with ANKS3-SAM F53E (human). Kind of data set: SPR; ANKS3-SAM F53E immobilised on CM5 (EDC/NHS), ANKS3-SAM I36E flowed over; Biacore T100, 21°C, 20 mM HEPES pH 7.5, 1 mM DTT, 0.04% IGEPAL CA-630, 0.15 M NaCl; equilibrium, 1:1 steady-state model, triplicate; Kd called an approximation since saturation was not reached.

B1: negGFP-ANKS3-SAM fusion protein (domain or fragment, human, UniProt Q6ZW76 421-490, looked up)
chain: RAPYSGPQDLAALLEQIGCLKYLQVFEEQDVDLRIFLTLTESDLKEIGITLFGPKRKMTSAIARWHSSAR
notes: ANKS3 (ankyrin repeat and SAM-domain containing protein 3), human, SAM domain, residues 421-490 of UniProt Q6ZW76; source: ARI814 cells, in lysate (native gel); purified (Ni-NTA, HiTrap Q) for TEM
With B1, the binding result in data set [1] was “binds”.
Same read-out and setting: the value for B2 was “binds”.

B3: His6-tagged ANKS6-SAM (domain or fragment, human, UniProt Q68DC2 771-840, looked up)
chain: TITDEDELTGILKKLSLEKYQPIFEEQEVDMEAFLTLTDGDLKELGIKTDGSRQQILAAISELNAGKGRE
notes: ANKS6, human, SAM domain, residues 771-840 of UniProt Q68DC2; pBAD-HisA vector; source: ARI814 cells, purified (HiTrap IMAC, HiTrap Q)
Regarding B3, the binding result in data set [2] is listed as “binds”.

B4: ANKS3-SAM I36E (domain or fragment)
chain: SRAPYSGPQDLAALLEQIGCLKYLQVFEEQDVDLREFLTLTESDLKEIGITLFGPKRKMTSAIARWHSSAR
As to B4, the other: Log (Kd) in data set [3] (Log [NaCl] est. -0.60) was found to be 4; in data set [3] (Log [NaCl] est. -0.70) it was 3.9; in data set [3] (Log [NaCl] est. -0.82) it was 3.8; in data set [3] (Log [NaCl] est. -1.0) it was 3.7. The Kd in data set [4] was found to be 270 nM; in data set [5] it was 249 nM; in data set [6] it was 5800 nM.

One may read the Kd as the concentration at which binding is half-saturated.
